According to US20150098945A1 (Daiichi Sankyo, published 2015):

T1: recombinant human ROBO4 extracellular region polypeptide rROBO4-ECD (human, UniProt Q8WZ75 28-461)
T1 construct: Expressed from pEF6/V5-His-TOPO in FreeStyle 293-F cells; also called human ROBO4-ECD
T1 sequence: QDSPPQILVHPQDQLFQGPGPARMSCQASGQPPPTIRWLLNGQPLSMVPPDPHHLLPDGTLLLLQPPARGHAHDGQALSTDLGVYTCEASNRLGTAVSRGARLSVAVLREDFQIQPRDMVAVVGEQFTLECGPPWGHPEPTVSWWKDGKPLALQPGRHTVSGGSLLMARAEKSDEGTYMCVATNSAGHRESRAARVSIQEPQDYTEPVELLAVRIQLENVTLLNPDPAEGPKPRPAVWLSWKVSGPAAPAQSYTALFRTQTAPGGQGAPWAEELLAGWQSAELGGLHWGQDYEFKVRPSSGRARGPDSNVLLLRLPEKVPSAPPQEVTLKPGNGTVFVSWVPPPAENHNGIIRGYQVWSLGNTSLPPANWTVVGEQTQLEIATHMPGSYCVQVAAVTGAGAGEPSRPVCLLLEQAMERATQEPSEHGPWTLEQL


Target: T1, recombinant human ROBO4 extracellular …
Test: SPR (Biacore 3000), antibody captured via anti-human IgG on CM5, rROBO4-ECD as analyte, 1:1 model
Protocol: The dissociation constant between each antibody and rROBO4-ECD was determined with the antibody immobilized as a ligand and the antigen as an analyte using Biacore 3000 (manufactured by GE Healthcare Bio-Sciences Corp.). Approximately 80 RU of the antibody was bound via an anti-human IgG antibody (manufactured by GE Healthcare Bio-Sciences Corp.) immobilized on a sensor chip CM5 (manufactured by GE Healthcare Bio-Sciences Corp.) by an amine coupling method. The running buffer used was PBS containing 0.05% Surfactant P20. Dilution series solutions (0.1-200 nM) of the antigen were added at a flow rate of 30 μL/min. for 300 seconds onto the antibody-bound chip. Subsequently, a dissociation phase was monitored for 300 seconds. 3 M MgCl₂ was added thereto as a regeneration solution at a flow rate of 10 μL/min. for 30 seconds. Data was analyzed using the 1:1 binding model of analysis software (BIAevaluation Software, version 4.1) to calculate an association rate constant kon, a dissociation rate constant koff, and a dissociation constant (KD; KD=koff/kon).

| Kd [nM] | Binder |
| --- | --- |
| 0.41 | humanized MAb1 antibody H-1040 (antibody, human IgG2, kappa, V domains shown, Human IgG2 / kappa constant regions; also called hMAb1-H1-type heavy chain + hMAb1-L1-type light chain) VH: EVQLVESGGGLVQPGGSLRLSCAASGFTFSTYAMSWVRQAPGKGLEWVATISNGGTYTYYPDSVKGRFTISRDNAKNTLYLQMNSLRAEDTAVYYCARLIYYDYLDYWGQGTLVTVSS VL: DIVMTQSPLSLPVTLGEPASISCRSSQSLENSNGNTYLNWYLQKPGQSPQLLIYRVSNRFSGVPDRFSGSGSGTDFTLKISRVEAEDVGVYYCLQVTHVPWTFGPGTKVDIKR |
| 0.4 | humanized MAb1 antibody H-2040 (antibody, human IgG2, kappa, V domains shown, Human IgG2 / kappa constant regions; also called hMAb1-H3-type heavy chain + hMAb1-L1-type light chain) VH: EVQLVESGGGLVQPGGSLRLSCAASGFTFSTYAMSWVRQAPGKRLEWVATISNGGTYTYYPDSVKGRFTISRDNAKNTLYLQMNSLRAEDTAVYYCARLIYYDYLDYWGQGTLVTVSS VL: DIVMTQSPLSLPVTLGEPASISCRSSQSLENSNGNTYLNWYLQKPGQSPQLLIYRVSNRFSGVPDRFSGSGSGTDFTLKISRVEAEDVGVYYCLQVTHVPWTFGPGTKVDIKR |
